Experimental findings from article PMC5535997 (International Journal of Molecular Sciences, 2017) are described below.

The labels stand for the following.
B1: VHH54.1 displayed on S. aureus RN4220 (VHH)
VHH: QVQLVESGGGLVQAGASLRLSCATSGRTLSGYAMGWFRQAPGKERELTAAISWSGISTYYTDSVKGRFTISRDNAKNTVYLQMNSLNSEDTGVYYCVADVGWPLRADRGSWGQGTQVTISS
notes: also called anti-NP-VHH4
B2: VHH52 displayed on S. aureus RN4220 (VHH)
VHH: QVQLQESGGGLVQAGGSLRLTCALSERTSTSYAQGWFRQPPGKEREFVASLRTHDGNTHYTDSVKGRFTISRDNAENTLYLQMNSLKTEDTAVYYCAASLGYSGAYASGYDYWGQGTQVTVSS
notes: also called anti-NP-VHH1
B3: VHH54 displayed on S. aureus RN4220 (VHH)
VHH: QVQLQESGGGLVQAGGSLRLSCAASGRTLSSYAMGWFRQAPGKERELVSAISWSGLSTYYEDSVKGRFTISRDNAKNTMYLQMNSLKPEDTAIYYCAADIGWPLRADSGSWGQGTQVTVSS
notes: also called anti-NP-VHH2
B4: VHH52.1 displayed on S. aureus RN4220 (VHH)
VHH: QLQLVESGGGLVQAGGSLRLSCAASGSTFSNYAMGWFRQAPGKEREFVASIRWIGGSTRYADSVKGRFTTSRDNAKNALYLQMNSLKTEDTAVYYCAASLGYSASYASGYDYWGQGTQVTVSS
notes: also called anti-NP-VHH6
B5: C8 displayed on S. aureus RN4220 (VHH)
VHH: QVHSWSLGGGLVQSGGSLTLSCAASGFTFTNAYMSWVRQGPGKEPEWVSGINARGVGTRYADFVKGRFTISRDNAKTILYLQMNSLKPEDTALYYCASDFGPSGGRWDPPRRRGQGTWVTVSS
B6: VHH62 displayed on S. aureus RN4220 (VHH)
VHH: QVQLVESGGGLVQPGGSLRLSCAASGFTLDGYAIGWFRQAPGKEREGVSCISSSGKSTNYADSVKGRFTISRDNQQNTVYLQMNSLKPEDTAVYYCAATVGLFCVGGTYGMDYWGKGTLVKMSS
notes: also called anti-NP-VHH3
B7: D4 displayed on S. aureus RN4220 (VHH)
VHH: QLQLVETGGGLVQSGGSLRLSCAASGFTLGSYAIGWYRQAPGKERERVSCISSSGISTNYADPVKGRFTISRDNAKNTVYLQMDSLKPEDTAVYYCAADSFFCLGPNMDYWGKGTLVIVSS
notes: also called anti-NP-VHH5

In the assay the target is influenza A virus nucleoprotein (NP), strain A/WSN/33, from infected MDCK cells (Influenza A virus A/WSN/1933 (H1N1), [35S]Met/Cys radiolabel). Description: pull-down. Particulars: partners not purified.
Chain of influenza A virus nucleoprotein (NP), strain A/WSN/33, from infected MDCK cells (Influenza A virus A/WSN/1933 (H1N1), [35S]Met/Cys radiolabel) (P15682 whole entry): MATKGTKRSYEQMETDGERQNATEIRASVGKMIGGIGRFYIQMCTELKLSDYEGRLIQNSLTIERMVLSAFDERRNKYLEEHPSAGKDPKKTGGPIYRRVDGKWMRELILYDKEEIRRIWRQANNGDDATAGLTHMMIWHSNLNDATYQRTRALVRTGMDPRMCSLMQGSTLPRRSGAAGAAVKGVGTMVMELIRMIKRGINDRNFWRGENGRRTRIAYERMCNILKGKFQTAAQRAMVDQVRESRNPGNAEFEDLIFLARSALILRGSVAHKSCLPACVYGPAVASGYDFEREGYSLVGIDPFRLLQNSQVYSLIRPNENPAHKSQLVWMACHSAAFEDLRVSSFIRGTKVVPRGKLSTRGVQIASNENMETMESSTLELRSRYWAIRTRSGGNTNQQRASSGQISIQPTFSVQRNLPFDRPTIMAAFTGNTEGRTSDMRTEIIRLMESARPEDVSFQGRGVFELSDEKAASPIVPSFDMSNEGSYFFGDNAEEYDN
For B1, the binding result is “binds”. For B2, the binding result was “binds”.

On to B3, for which the binding result was “binds”. As to B4, the binding result is reported as “binds”. The result for B5 reads “binds”. The result for B6 reads “binds”; that for B7, “binds”.
